T1: X. albilineans Cas8f–Cas5f heterodimer (Xanthomonas albilineans)
T1 chain 1: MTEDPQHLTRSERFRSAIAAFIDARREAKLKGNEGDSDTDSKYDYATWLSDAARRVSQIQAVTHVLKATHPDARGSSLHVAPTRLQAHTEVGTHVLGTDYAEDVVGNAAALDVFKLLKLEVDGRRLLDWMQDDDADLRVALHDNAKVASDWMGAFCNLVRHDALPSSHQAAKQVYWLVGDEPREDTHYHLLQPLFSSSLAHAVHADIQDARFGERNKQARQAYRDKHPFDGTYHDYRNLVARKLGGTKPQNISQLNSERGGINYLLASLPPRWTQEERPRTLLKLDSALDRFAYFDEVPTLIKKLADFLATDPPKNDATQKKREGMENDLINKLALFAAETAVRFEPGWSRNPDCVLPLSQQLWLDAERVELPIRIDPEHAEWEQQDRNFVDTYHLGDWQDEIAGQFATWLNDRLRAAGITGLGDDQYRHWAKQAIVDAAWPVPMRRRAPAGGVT
T1 chain 2: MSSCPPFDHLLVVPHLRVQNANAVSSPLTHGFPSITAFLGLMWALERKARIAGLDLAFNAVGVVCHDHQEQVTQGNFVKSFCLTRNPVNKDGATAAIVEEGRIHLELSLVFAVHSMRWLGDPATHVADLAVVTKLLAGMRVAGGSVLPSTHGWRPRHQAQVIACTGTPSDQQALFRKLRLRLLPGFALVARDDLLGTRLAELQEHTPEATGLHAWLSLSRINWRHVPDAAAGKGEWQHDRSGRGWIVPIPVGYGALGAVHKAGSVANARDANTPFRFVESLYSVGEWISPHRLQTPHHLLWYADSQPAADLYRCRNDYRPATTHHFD


How the values were obtained:
[1] = molecular target: X. albilineans Cas8f–Cas5f heterodimer (Xanthomonas albilineans); assay: ITC; 250 μM AcrIF7 in the syringe titrated into 35 μM Cas8f–Cas5f in the cell; 20 mM Tris–HCl pH 7.5, 150 mM NaCl, 1 mM TCEP, 25°C; one-site binding model
[2] = molecular target: X. albilineans Cas8f(K248E)–Cas5f heterodimer (Xanthomonas albilineans); assay: as above
[3] = molecular target: X. albilineans Cas8f(K29E)–Cas5f heterodimer (Xanthomonas albilineans); assay: as above
[4] = molecular target: X. albilineans Cas8f–Cas5f heterodimer (Xanthomonas albilineans); assay: ITC; as the standard ITC but with 500 mM NaCl instead of 150 mM
[5] = molecular target: T1, X. albilineans Cas8f–Cas5f heterodimer; assay: ITC; 500 mM NaCl

| Molecule | Kd [1] [nM] | dH [1] [kcal/mol] | stoichiometry N [1] | other results |
| --- | --- | --- | --- | --- |
| AcrIF7 E46K/E47K (natural protein) | 46 | -17 | 0.8 | – |
| AcrIF7 D13K (natural protein) | 2450 | -14.2 | 0.72 | – |
| AcrIF7 (a.a. 1–67) (natural protein) | 46 | -17.1 | 0.78 | Kd [2]: 1870 nM; dH [2]: -16 kcal/mol; stoichiometry N [2]: 0.78; Kd [3]: 327 nM; dH [3]: -14.5 kcal/mol; stoichiometry N [3]: 0.83; fold reduction of the strength of the interaction at 500 mM NaCl against 150 mM NaCl [4]: 2.7 fold |
| AcrIF7 E22K (natural protein) | 50 | -15.6 | 0.75 | – |
| AcrIF7 D57K (natural protein) | 333 | -12.7 | 0.77 | – |
| AcrIF7 E18K (natural protein) | 49 | -19.6 | 0.88 | – |
| AcrIF7 E33K/E34K (natural protein) | 4850 | -9.5 | 0.9 | – |
| AcrIF7 D28K/D29K (natural protein) | 179 | -12.9 | 0.75 | – |
| AcrIF7 (a.a. 1–67) (natural protein) MTTFTSIVTTNPDFGGFEFYVEAGQQFDDSAYEEAYGVSVPSAVVEEMNAKAAQLKDGEWLNVSHEA | – | – | – | Kd [5]: 124 nM |

Source: PMC7515697 (2020)
